Reference: patent publication US20060251734A1

Columns and labels:
[1] = test system: T1, mutated cdc2 peptide with Phe-15 substituted for Tyr-15 (IEKIGEGTFGVVYK)
T1 sequence: IEKIGEGTFGVVYK

[2] = target: cdc2 peptide (amino acids 7 to 20; …); assay: cell-based or functional assay

| phosphorylation of the cdc2 peptide by anti-Lyn immune complexes from MMC-treated cells against control cells [2] [fold] | Substance | phosphorylation of the mutated cdc2 peptide (Tyr-15 to Phe-15) by anti-Lyn immune complexes [1] |
| --- | --- | --- |
| – | p56/p53^lyn tyrosine kinase | there was little phosphorylation of the mutated cdc2 peptide with anti-Lyn complexes from control or MMC-treated cells |
| 2 | p56/p53^lyn tyrosine kinase (from UniProt P07948 2-512) (enzyme) | – |
